IntAct's records for PubMed 29892012

B1: Keratin, type I cuticular Ha8 (Homo sapiens), O76015 (parent)
chain: MTSSYSSSSCPLGCTMAPGARNVSVSPIDIGCQPGAEANIAPMCLLANVAHANRVRVGSTPLGRPSLCLPPTCHTACPLPGTCHIPGNIGICGAYGENTLNGHEKETMQFLNDRLANYLEKVRQLEQENAELEATLLERSKCHESTVCPDYQSYFHTIEELQQKILCSKAENARLIVQIDNAKLAADDFRIKLESERSLRQLVEADKCGTQKLLDDATLAKADLEAQQESLKEEQLSLKSNHEQEVKILRSQLGEKLRIELDIEPTIDLNRVLGEMRAQYEAMLETNRQDVEQWFQAQSEGISLQDMSCSEELQCCQSEILELRCTVNALEVERQAQHTLKDCLQNSLCEAEDRFGTELAQMQSLISNVEEQLSEIRADLERQNQEYQVLLDVKTRLENEIATYRNLLESEDCKLPCNPCSTSPSCVTAPCAPRPSCGPCTTCGPTCGASTTGSRF
partner: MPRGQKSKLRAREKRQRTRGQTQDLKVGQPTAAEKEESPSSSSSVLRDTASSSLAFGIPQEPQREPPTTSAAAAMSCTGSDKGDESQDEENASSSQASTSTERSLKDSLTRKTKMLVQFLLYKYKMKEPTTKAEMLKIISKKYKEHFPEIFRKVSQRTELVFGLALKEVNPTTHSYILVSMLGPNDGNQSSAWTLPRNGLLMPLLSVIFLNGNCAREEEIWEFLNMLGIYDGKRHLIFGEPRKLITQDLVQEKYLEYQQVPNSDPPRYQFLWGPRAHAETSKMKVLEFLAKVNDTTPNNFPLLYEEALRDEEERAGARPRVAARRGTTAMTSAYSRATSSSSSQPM
B2: Ligand of Numb protein X 2 (Homo sapiens), Q8N448 (parent)
chain: MGTTSDEMVSVEQTSSSSLNPLCFECGQQHWTRENHLYNYQNEVDDDLVCHICLQPLLQPLDTPCGHTFCYKCLRNFLQEKDFCPLDRKRLHFKLCKKSSILVHKLLDKLLVLCPFSSVCKDVMQRCDLEAHLKNRCPGASHRRVALERRKTSRTQAEIENENGPTLLDPAGTLSPEADCLGTGAVPVERHLTSASLSTWSEEPGLDNPAFEESAGADTTQQPLSLPEGEITTIEIHRSNPYIQLGISIVGGNETPLINIVIQEVYRDGVIARDGRLLAGDQILQVNNYNISNVSHNYARAVLSQPCNTLHLTVLRERRFGNRAHNHSDSNSPREEIFQVALHKRDSGEQLGIKLVRRTDEPGVFILDLLEGGLAAQDGRLSSNDRVLAINGHDLKYGTPELAAQIIQASGERVNLTIARPGKPQPGNTIREAGNHSSSSQHHTPPPYYSRPSSHKDLTQCVTCQEKHITVKKEPHESLGMTVAGGRGSKSGELPIFVTSVPPHGCLARDGRIKRGDVLLNINGIDLTNLSHSEAVAMLKASAASPAVALKALEVQIVEEATQNAEEQPSTFSENEYDASWSPSWVMWLGLPSTLHSCHDIVLRRSYLGSWGFSIVGGYEENHTNQPFFIKTIVLGTPAYYDGRLKCGDMIVAVNGLSTVGMSHSALVPMLKEQRNKVTLTVICWPGSLV
partner: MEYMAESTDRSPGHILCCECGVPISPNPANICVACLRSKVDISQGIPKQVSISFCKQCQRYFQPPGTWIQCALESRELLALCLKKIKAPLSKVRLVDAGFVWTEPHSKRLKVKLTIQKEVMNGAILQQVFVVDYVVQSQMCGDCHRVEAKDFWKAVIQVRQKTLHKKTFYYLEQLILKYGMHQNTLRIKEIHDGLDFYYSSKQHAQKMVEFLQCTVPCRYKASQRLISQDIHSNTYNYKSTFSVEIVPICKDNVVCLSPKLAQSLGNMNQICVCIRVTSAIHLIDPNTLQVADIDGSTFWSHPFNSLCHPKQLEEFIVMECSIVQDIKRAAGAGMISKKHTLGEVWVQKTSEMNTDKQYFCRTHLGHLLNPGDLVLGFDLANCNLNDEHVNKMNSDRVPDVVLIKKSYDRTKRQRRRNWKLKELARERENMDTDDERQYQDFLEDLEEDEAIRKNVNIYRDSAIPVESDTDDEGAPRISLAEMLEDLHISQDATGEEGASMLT
B3: E3 ubiquitin-protein ligase RNF31 (Homo sapiens), Q96EP0 (parent)
chain: MPGEEEERAFLVAREELASALRRDSGQAFSLEQLRPLLASSLPLAARYLQLDAARLVRCNAHGEPRNYLNTLSTALNILEKYGRNLLSPQRPRYWRGVKFNNPVFRSTVDAVQGGRDVLRLYGYTEEQPDGLSFPEGQEEPDEHQVATVTLEVLLLRTELSLLLQNTHPRQQALEQLLEDKVEDDMLQLSEFDPLLREIAPGPLTTPSVPGSTPGPCFLCGSAPGTLHCPSCKQALCPACDHLFHGHPSRAHHLRQTLPGVLQGTHLSPSLPASAQPRPQSTSLLALGDSSLSSPNPASAHLPWHCAACAMLNEPWAVLCVACDRPRGCKGLGLGTEGPQGTGGLEPDLARGRWACQSCTFENEAAAVLCSICERPRLAQPPSLVVDSRDAGICLQPLQQGDALLASAQSQVWYCIHCTFCNSSPGWVCVMCNRTSSPIPAQHAPRPYASSLEKGPPKPGPPRRLSAPLPSSCGDPEKQRQDKMREEGLQLVSMIREGEAAGACPEEIFSALQYSGTEVPLQWLRSELPYVLEMVAELAGQQDPGLGAFSCQEARRAWLDRHGNLDEAVEECVRTRRRKVQELQSLGFGPEEGSLQALFQHGGDVSRALTELQRQRLEPFRQRLWDSGPEPTPSWDGPDKQSLVRRLLAVYALPSWGRAELALSLLQETPRNYELGDVVEAVRHSQDRAFLRRLLAQECAVCGWALPHNRMQALTSCECTICPDCFRQHFTIALKEKHITDMVCPACGRPDLTDDTQLLSYFSTLDIQLRESLEPDAYALFHKKLTEGVLMRDPKFLWCAQCSFGFIYEREQLEATCPQCHQTFCVRCKRQWEEQHRGRSCEDFQNWKRMNDPEYQAQGLAMYLQENGIDCPKCKFSYALARGGCMHFHCTQCRHQFCSGCYNAFYAKNKCPEPNCRVKKSLHGHHPRDCLFYLRDWTALRLQKLLQDNNVMFNTEPPAGARAVPGGGCRVIEQKEVPNGLRDEACGKETPAGYAGLCQAHYKEYLVSLINAHSLDPATLYEVEELETATERYLHVRPQPLAGEDPPAYQARLLQKLTEEVPLGQSIPRRRK
B4: Retinoic acid receptor alpha (Homo sapiens), P10276 (parent)
chain: MASNSSSCPTPGGGHLNGYPVPPYAFFFPPMLGGLSPPGALTTLQHQLPVSGYSTPSPATIETQSSSSEEIVPSPPSPPPLPRIYKPCFVCQDKSSGYHYGVSACEGCKGFFRRSIQKNMVYTCHRDKNCIINKVTRNRCQYCRLQKCFEVGMSKESVRNDRNKKKKEVPKPECSESYTLTPEVGELIEKVRKAHQETFPALCQLGKYTTNNSSEQRVSLDIDLWDKFSELSTKCIIKTVEFAKQLPGFTTLTIADQITLLKAACLDILILRICTRYTPEQDTMTFSDGLTLNRTQMHNAGFGPLTDLVFAFANQLLPLEMDDAETGLLSAICLICGDRQDLEQPDRVDMLQEPLLEALKVYVRKRRPSRPHMFPKMLMKITDLRSISAKGAERVITLKMEIPGSMPPLIQEMLENSEGLDTLSGQPGGGGRDGGGLAPPPGSCSPSLSPSSNRSSPATHSP
partner: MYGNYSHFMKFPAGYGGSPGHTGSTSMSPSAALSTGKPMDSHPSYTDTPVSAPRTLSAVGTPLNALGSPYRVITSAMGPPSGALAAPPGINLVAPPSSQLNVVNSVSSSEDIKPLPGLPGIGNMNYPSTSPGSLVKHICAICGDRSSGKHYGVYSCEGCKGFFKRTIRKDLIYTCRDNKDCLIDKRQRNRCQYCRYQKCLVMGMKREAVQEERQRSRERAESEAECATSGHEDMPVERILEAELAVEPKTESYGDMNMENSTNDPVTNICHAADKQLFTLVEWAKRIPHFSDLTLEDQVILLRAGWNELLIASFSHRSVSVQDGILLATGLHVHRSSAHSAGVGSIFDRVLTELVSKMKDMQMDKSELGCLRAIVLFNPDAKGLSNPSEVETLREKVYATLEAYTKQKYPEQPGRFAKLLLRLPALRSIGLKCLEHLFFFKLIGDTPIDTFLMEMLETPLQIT

Variants of: B1
Details: with magb4_human MAGEB4, O15481
For D306A, the “effect of a mutation on the interaction” value was “with no effect”.

Variants of: B2
Details: with nmd3_human NMD3, Q96D46
With P669A the “effect of a mutation on the interaction” value was “with no effect”.

Variants of: B3
Details: with hoil1_human RBCK1, Q9BYM8
Chain of hoil1_human RBCK1, Q9BYM8 (Q9BYM8 whole entry): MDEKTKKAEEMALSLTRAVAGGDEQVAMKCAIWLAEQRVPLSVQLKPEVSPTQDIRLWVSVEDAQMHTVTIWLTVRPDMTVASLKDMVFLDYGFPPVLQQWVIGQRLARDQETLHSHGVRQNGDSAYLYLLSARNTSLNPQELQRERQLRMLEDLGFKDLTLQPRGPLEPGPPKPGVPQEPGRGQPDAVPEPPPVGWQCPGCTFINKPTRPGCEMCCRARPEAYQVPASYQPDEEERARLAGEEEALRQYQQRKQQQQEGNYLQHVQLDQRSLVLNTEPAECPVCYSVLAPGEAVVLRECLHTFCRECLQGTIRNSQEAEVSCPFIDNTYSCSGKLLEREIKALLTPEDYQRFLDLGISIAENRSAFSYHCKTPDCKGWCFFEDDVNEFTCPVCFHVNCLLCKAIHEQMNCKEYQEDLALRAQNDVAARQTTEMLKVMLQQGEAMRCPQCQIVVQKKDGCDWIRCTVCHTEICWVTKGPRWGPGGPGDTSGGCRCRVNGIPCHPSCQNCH
In the case of R646W, the “effect of a mutation on the interaction” value is reported as “with no effect”.

Variants of: B3
Details: with ccd24_human CCDC24, Q8N4L8
Chain of ccd24_human CCDC24, Q8N4L8 (Q8N4L8 whole entry): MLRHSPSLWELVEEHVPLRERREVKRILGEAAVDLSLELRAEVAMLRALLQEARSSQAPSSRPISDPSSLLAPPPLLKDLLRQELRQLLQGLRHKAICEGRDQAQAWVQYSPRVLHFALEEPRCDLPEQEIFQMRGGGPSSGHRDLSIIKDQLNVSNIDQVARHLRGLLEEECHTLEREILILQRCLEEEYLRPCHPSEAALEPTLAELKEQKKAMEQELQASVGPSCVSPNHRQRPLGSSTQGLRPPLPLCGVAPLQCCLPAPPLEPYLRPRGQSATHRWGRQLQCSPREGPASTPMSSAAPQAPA
With R646W the “effect of a mutation on the interaction” value was “with no effect”.

Variants of: B4
Details: with rxrg_human RXRG
With P375L the “effect of a mutation on the interaction” value was “disrupting interaction strength”.

Variants of: B4
Details: with rxrg_human RXRG
Remark: another data set of the same source
R83H was tested, and the “effect of a mutation on the interaction” value was “with no effect”.
